Values quoted from earlier work as cited in article PMC5671728.
Several values for one entry are separate records, joined by “and”; a condition that tells them apart may be missing. Equal values may be shown once.

Key:
[1] = target: Insulin receptor isoform A (Homo sapiens) (UniProt P06213)
[2] = target: Insulin receptor isoform B (Homo sapiens) (UniProt P06213)

Chain of Insulin (P01308 90-110): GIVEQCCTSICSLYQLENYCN

Q: With Insulin (from UniProt P01308) as the substance, how does the Kd [1] read?
A: 0.91 nM and 2.1 nM

Q: And the Kd [2]?
A: 1.8 nM and 1.56 nM
